CN112812179A (UNIV BEIJING, dated 2021)

T1: 人CMTM6氨基酸序列2到24位氨基酸的多肽 (CMTM6 N2-24) (human, UniProt Q9NX76 2-24, C末端耦联BSA (the BSA conjugate is the one made for ELISA, paragraph 46; the KLH conjugate was used for immunisation))
T1 construct: range 2-24; also called CMTM6 N2-24多肽; BSA耦联的CMTM6 N2-24多肽
T1 peptide (looked up): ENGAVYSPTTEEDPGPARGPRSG

T2: 人CMTM6 (endogenous, in 786-O cells and colon cancer tissue) (human, UniProt Q9NX76 1-183)
T2 construct: whole, on cells
T2 sequence (looked up): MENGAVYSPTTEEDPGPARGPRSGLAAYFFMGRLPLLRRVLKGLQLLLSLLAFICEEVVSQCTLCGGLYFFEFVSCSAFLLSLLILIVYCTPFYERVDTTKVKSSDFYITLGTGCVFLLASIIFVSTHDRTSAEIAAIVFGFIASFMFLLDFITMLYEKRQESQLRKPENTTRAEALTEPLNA

T3: Flag-CMTM6 (overexpressed in HEK293T cells) (human, UniProt Q9NX76 1-183)
T3 construct: Detected in denatured cell lysate by Western blot; the band is 26 kD; also called Flag-CMTM6融合表达载体; not shown: Flag tag
T3 sequence (looked up): T2 sequence (looked up)

B1: 1-19重链(HC)和轻链(LC)超表达上清 (recombinant 1-19 from HEK293T cells co-transfected with heavy and light chain plasmids) (antibody, V domains shown)
VH: EVQLQQSGAELVKPGASVKLSCASSGFNIKDTYIHWVKRRPEQGLEWIGRIDPANGKTYFHSNFQGKATITADTSSNTAHLELSSLTSEDTAVYYCAFLYDGPIDYWGQGTSVTVSS
VL: DVLMTQTPLSLPVSLGDQASISCRSSQSIVYRDGNTYLDWYLQKPGQSPKLLIYKVSNRFSGVPDRFSGSGSGTDFTLKISRVEAEDLGVYYCFQGSLFPYTFGGGTKLEI
notes: Full-length light and heavy chains amplified from 1-19 hybridoma cDNA, cloned into pcDNA3.1 and expressed in HEK293T; see the note of m1 for the printed FR/CDR pieces; also called 共转染本发明抗体1-19重轻链质粒的HEK293T细胞上清
B2: 鼠抗人CMTM6单克隆抗体1-19 (purified from hybridoma supernatant) (antibody, V domains shown)
VH: B1 VH
VL: B1 VL
notes: also called 1-19mAb; 本发明抗体1-19

Legend:
[1] = target: T1, 人CMTM6氨基酸序列2到24位氨基酸的多肽 (CMTM6 N2-24); assay: indirect ELISA, serially diluted peptide coated on the plate
[2] = target: T2, 人CMTM6 (endogenous, in 786-O cells and …); assay: Western blot of 786-O lysates, compared with CMTM6 knockout clones 2E7 and 4D10
[3] = target: T3, Flag-CMTM6 (overexpressed in HEK293T …); assay: Western blot of HEK293T lysates, 1 ug/mL primary antibody; empty-vector control gave no signal

Row | Binder | binding result [1] | binding result [2] | binding result [3]
1 | B1 | binds | – | –
2 | B2 | – | binds | binds
